The text below walks through data of patent US20250000991A1, “NECTIN-4 ANTIBODIES AND ANTIBODY-DRUG CONJUGATES” (Eli Lilly and Company, priority 2023, published 2025).

In one assay the target is rat Nectin-4. Kind of assay: Surface plasmon resonance (Biacore 8K+) binding of nectin-4 ADCs to rat Nectin-4. Conditions: rat Nectin-4, 37° C., ADC Formula XI DAR 8, n=1. As for the experimental part: (§1) An anti-human Fc sensor surface was prepared by amine-coupling of goat anti-human IgG Fc (Southern Biotech Cat. No. 2014-01, Birmingham, AL) to a Biacore Series S CM4 (Cytiva Cat. No. BR-100534) sensor surface at 25° C. For immobilization, a running buffer of 10 mM HEPES, 150 mM NaCl, 0.05% Tween-20, pH 7.4 was used. Flow cells 1 & 2 of all 8 channels were activated with a 1:1 (v/v) mixture of 400 mM 1-Ethyl-3-(3-dimethylaminopropyl) carbodiimide hydrochloride (EDC) and […] N-Hydroxysuccinimide (NHS) at a flow rate of 10 uL/min for 7 minutes. Then the anti-human IgG Fc capture reagent was coupled to the sensor surface (diluted to 50 μg/mL in 10 mM Acetate pH 4.5 buffer) by injecting it in all flow cells and channels at a flow rate of 10 uL/min for 7 minutes. Remaining active groups were blocked by injecting 100 mM ethylenediamine (in 200 mM Borate buffer, pH 8.5) in all flow cells and channels at a flow rate of 10 uL/min for 7 minutes. All channels and flow cells were then preconditioned using three consecutive 1-minute injections of 75 mM phosphoric acid at 10 uL/min.
(§2) In each analysis cycle, a different ADC was captured on flow cell 2 of each channel by injecting it at 5 μg/mL and 10 uL/min. After capture, the same analyte was injected on flow cells 1 and 2 in all 8 channels for 2 minutes at 30 uL/n and dissociation was monitored for 10 minutes. After dissociation, all surfaces were regenerated with three 1-minute injections of 5 mM phosphoric acid at 10 uL/min. ADC capture and analyte cycles were repeated to obtain analyte binding of each ADC at concentrations of 0, 2.5, 7.4, 22, 67, 200 and 600 nM nectin-4.
(§3) Sensorgram data were fit globally with the default 1:1 binding model in Biacore Insight Evaluation Software v3.0.12.15655.
For orientation: In SPR one partner is held on a chip, and binding of the other changes the refractive index at the surface.

Assay [1] deals with T24 mScarlet clone 5 Nectin-4 negative cells. Description: Bystander killing of T24-mScarlet clone 5 cells co-cultured with T24-human nectin4 clone108 (imaging). Type of assay: cell-based. The note with it: T24-mScarlet clone5 : T24-human nectin4 clone108 9:1, 5 days, ADC Formula XI DAR 8; read-out: IC50 of bystander effect. As for the experimental part: T24 cell line was engineered to express mScarlet and clonally selected to test in bystander assay. T24-mScarlet clone5 and T24-human nectin4 clone108 were mixed and seeded at a total of 1000 cells/well/100 ul with a ratio of 9:1 in culture medium (McCoy's 5A+1× GlutaMax+10% Heat Inactivated Fetal Bovine Serum+400 μg/ml G418) in flat clear bottom 96-well plates. T24 mScarlet clone 5 cells were negative for nectin-4 expression. Plates were incubated at 37° C. with 5% CO2 overnight. Next day, ADCs were added at final working concentration from 50 nM, 1:4 serially diluted in culture medium. Plates were covered with Breathe-Easy® sealing membrane, placed in BioSpa and scanned in Cytation5 every day for 5 days.
Images of T24-mScarlet cells were captured and analyzed by Cytation5 with Gen5 Image Prime 3.11. Percentage of T24-mScarlet cell killing was calculated by decreased Integrated Intensity (area×mean intensity), normalized to zero hour and no treatment. Data was graphed and analyzed using GraphPad Prism version 9.5.1. IC50 was determined via log(inhibitor) vs. response-variable slope (four parameters) curve fitting.

The next assay has as its system cyno Nectin-4. Description: Surface plasmon resonance (Biacore 8K+) binding of nectin-4 ADCs to cyno Nectin-4. The note with it: cyno Nectin-4, 37° C., ADC Formula XI DAR 8, n=1. On the procedure: as §1, §2, §3
The target in another assay is T1, human Nectin-4 (Homo sapiens, UniProt Q96NY8).
T1 construct: His tag; purchased Acro Biosystems NE4-H52H3
T1 sequence (Q96NY8 32-510): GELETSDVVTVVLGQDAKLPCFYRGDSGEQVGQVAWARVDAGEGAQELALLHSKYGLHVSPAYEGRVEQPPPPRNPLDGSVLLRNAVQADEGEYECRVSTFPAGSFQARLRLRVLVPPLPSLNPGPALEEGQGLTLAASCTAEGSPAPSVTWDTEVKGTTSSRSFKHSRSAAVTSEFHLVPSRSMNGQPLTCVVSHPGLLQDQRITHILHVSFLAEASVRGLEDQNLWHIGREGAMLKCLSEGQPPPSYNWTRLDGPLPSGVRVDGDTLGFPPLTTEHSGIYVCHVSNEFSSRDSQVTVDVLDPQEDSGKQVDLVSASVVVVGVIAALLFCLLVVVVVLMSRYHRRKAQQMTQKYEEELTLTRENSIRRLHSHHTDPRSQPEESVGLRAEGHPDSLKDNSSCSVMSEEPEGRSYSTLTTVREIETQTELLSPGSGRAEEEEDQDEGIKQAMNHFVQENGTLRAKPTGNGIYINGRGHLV
Kind of assay: Surface plasmon resonance (Biacore 8K+) binding of nectin-4 ADCs to human Nectin-4. The note with it: human Nectin-4, 37° C., ADC Formula XI DAR 8; n=3 mean ± SD, n=2 replicate values. As for the experimental part:
as §1, §2, §3

Numbering of substitutions follows the chain as printed.

B1: Ab4 (conjugate)
heavy: QVQLQESGPGLVKPSETLSLTCTVSGGSISGYYWSWIRQPPGKGLEWIGYIYYSGSTNYNPSLKSRVTISVDTSKNQFSLKLSSVTAADTAVYYCARLGIFFDAFDIWGQGTLVTVSSASTKGPSVFPLAPSSKSTSGGTAALGCLVKDYFPEPVTVSWNSGALTSGVHTFPAVLQSSGLYSLSSVVTVPSSSLGTQTYICNVNHKPSNTKVDKRVEPKSCDKTHTCPPCPAPEAAGGPSVFLFPPKPKDTLMISRTPEVTCVVVSVSHEDPEVKFNWYVDGVEVHNAKTKPREEQYNSTYRVVSVLTVLHQDWLNGKEYKCKVSNKALPAPIEKTISKAKGQPREPQVYTLPPSREEMTKNQVSLTCLVKGFYPSDIAVEWESNGQPENNYKTTPPVLDSDGSFFLYSKLTVDKSRWQQGNVFSCSVMHEALHNHYTQKSLSLSPGK
light: DIQLTQSPSFLSASVGDRVTITCRASQGISSYLAWYQQKPGKAPKLLIYAASTLQSGVPSRFSGSGSGTEFTLTISSLQPEDFATYYCQQFNSYPWTFGQGTKVEIKRTVAAPSVFIFPPSDEQLKSGTASVVCLLNNFYPREAKVQWKVDNALQSGNSQESVTEQDSKDSTYSLSSTLTLSKADYEKHKVYACEVTHQGLSSPVTKSFNRGEC
B1: at rat Nectin-4 (KD = kd/ka), the KD entry is listed as “weak binding”. For the same molecule, the IC50 – broadly, the concentration needed to halve the response being measured – in assay [1] is 0.0798 nM. In addition, the ka with cyno Nectin-4 was 380000 M⁻¹ s⁻¹. For the same molecule, in the assay with human Nectin-4, the ka result is recorded as “(3.59 ± 0.80) × 10^5 1/Ms” and the kd result is reported as “(7.32 ± 1.19) × 10^−2 1/s”.

B2: Ab5 (conjugate)
heavy: QVQLVQSGAEVKKPGASVKVSCKASGYTFTSYYVHWVRQAPGQGLEWMGIINPSIISTSYAQKFQARVTMTRDTSTSTVYMELSSLRSEDTAVYYCARGLNFDAFDIWGQGTLVTVSSASTKGPSVFPLAPSSKSTSGGTAALGCLVKDYFPEPVTVSWNSGALTSGVHTFPAVLQSSGLYSLSSVVTVPSSSLGTQTYICNVNHKPSNTKVDKRVEPKSCDKTHTCPPCPAPEAAGGPSVFLFPPKPKDTLMISRTPEVTCVVVSVSHEDPEVKFNWYVDGVEVHNAKTKPREEQYNSTYRVVSVLTVLHQDWLNGKEYKCKVSNKALPAPIEKTISKAKGQPREPQVYTLPPSREEMTKNQVSLTCLVKGFYPSDIAVEWESNGQPENNYKTTPPVLDSDGSFFLYSKLTVDKSRWQQGNVFSCSVMHEALHNHYTQKSLSLSPGK
light: B1 light with F91L, S93N, W96F
Turning to B2, the ka with rat Nectin-4 is 636000 M⁻¹ s⁻¹; with cyno Nectin-4, 1.06e+06 M⁻¹ s⁻¹; with human Nectin-4 it was “(8.78 ± 1.07) × 10^5 1/Ms”. Besides, the kd on rat Nectin-4 is 0.0199 s⁻¹; on cyno Nectin-4, 0.0033 s⁻¹; with human Nectin-4, “(3.46 ± 0.48) × 10^−3 1/s”. Moreover, the IC50 in assay [1] worked out at 0.0766 nM.
